Numbering of substitutions follows the chain as printed.
T1: human CD70 (human, UniProt P32970 1-193)
T1 construct: also called hu CD70; CD27L
T1 sequence: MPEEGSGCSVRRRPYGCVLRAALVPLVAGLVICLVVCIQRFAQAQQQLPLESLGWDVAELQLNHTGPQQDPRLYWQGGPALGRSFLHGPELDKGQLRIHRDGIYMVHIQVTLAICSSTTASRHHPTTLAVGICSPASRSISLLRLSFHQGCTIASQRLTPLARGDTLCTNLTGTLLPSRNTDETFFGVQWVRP

T2: full-length mouse CD70 with C-terminal V5 tag (mouse, UniProt O55237 1-195)
T2 construct: On transfected CHO cells; also called murine CD70
T2 sequence: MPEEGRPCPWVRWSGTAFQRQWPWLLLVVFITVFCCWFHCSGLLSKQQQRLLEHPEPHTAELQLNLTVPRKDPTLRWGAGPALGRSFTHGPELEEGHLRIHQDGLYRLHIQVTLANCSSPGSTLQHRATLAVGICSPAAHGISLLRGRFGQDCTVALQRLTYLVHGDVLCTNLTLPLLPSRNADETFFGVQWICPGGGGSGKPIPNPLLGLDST

B1: CD70-20 (scFv)
scFv: EVQLLESGGGLVQPGGSLRLSCAASGFTFSTYAMSWVRQAPGKGLEWVSLISGSGGRTYYADSVKGRFTISRDNSKNTLYLQMNSLRAEDTAVYYCAKHDYSNYPYFDYWGQGTLVTVSSGGGGSGGGGSGGGGSEIVLTQSPGTLSLSPGERATLSCRASQGVRSDYLAWYQQKPGQALRLLIYGASSRATGIPDRFSGSGSGTDFTLTISRLEPEDFAVYHCQQYGSTPPTFGGGTKLEIK
notes: As m32
B2: CD70-29 (scFv)
scFv: EVQLLESGGGLVQPGGSLRLSCAASGFNFASYAMSWVRQAPGKGLEWVSVISGSGGRTHYADSGKGRFTISRDNSKNTLYLQMNSLRAEDTAVYYCAKHDYSNYPYFDYWGQGTLVTVSSGGGGSGGGGSGGGGSEIVLTQSPGTLSLSPGERATLSCRASQSVRSSYLAWYQQKPGQAPRLLIFGASSRATGIPDRFSGSESGTDFTLTINRLEPEDFAVYYCEQYGNSPPTFGGGTKVEIK
notes: As m32
B3: CD70-23 (scFv)
scFv: EVQLLESGGGLVQPGGSLRLSCAASGFTFSVYAMSWVRQAPGKGLEWVSTISDSGGSTFYADSVKGRFTISRDNSKNTLYLQMNRLRAEDTAVYYCARHDYSNYAYFDYWGQGTLVTVSSGGGGSGGGGSGGGGSEIVLTQSPGTLSLSPGERATLSCRASQSVRSSYLAWYQQKPGQAPRLLIYGASSRATGIPDRFSGSGSGTDFTLTISRLEPEDFAVYYCQQYGDLPFTFGPGTKVEIK
notes: As m32
B4: CD70-36 (scFv)
scFv: EVQLLESGGGLVQPGGSLRLSCAASGFTFSSYAMSWVRQAPGQGLEWVSAISGSGGRTYYADSVKGRFTISRDNSKNTLYLQMNSLRAEDTAVYYCAKHDYSNYPYFDYWGQGTLVTVSSGGGGSGGGGSGGGGSEIVLTQSPGTLSLSPGERATLSCRASQSVRGSYLAWYQQKPGQAPRLLIYSASSRATGIPDRFSGSGSGTDFTLTISRLEPEDFAVYYCQQYGDSPFTFGPGTKVEIK
notes: As m32
B5: CD70-25 (scFv)
scFv: B4 scFv with L11M, Q43K, Y59F, K65E, G166S, S167N, S186G, S230L
notes: As m32
B6: CD70-42 (scFv)
scFv: B1 scFv with D167S, L180P, S212N, H223Y, T230S, L240V, E241D
notes: As m32
B7: CD70-66 (scFv)
scFv: B4 scFv with G44C, P236C
notes: As m32
B8: CD70-24 (scFv)
scFv: B4 scFv with V12A, Q43K, R57S, Y59F, Y95F, G166S, S186G, S230L
notes: As m32
B9: CD70-41 (scFv)
scFv: B4 scFv with L11M, Q43K, Y59F, K65E, A97T, G166S, S186G, S230L, E241D
notes: As m32
B10: CD70-43 (scFv)
scFv: EVQLLESGGGVVQPGRSLRLSCAASGFTFSSYAMSWVRQAPGKGLEWVSAISGSGGRTFYADSVEGRFTISRDNSKNTLYLQMNSLRAEDTAVYYCAKHDYSNYPYFDYWGQGTLVTVSSGGGGSGGGGSGGGGSEIVLTQSPGTLSLSPGERATLSCRASQSVRSNYLAWYQQKPGQAPRLLIYGASSRATGIPDRFSGSGSGTDFTLTINRLEPEDFAVYYCQQYGSSPPTFGGGTKVDIK
notes: As m32
B11: CD70-40 (scFv)
scFv: B4 scFv with L11M, Q43K, Y59F, K65E, V164I, G166S, S186G, S230L, E241D
notes: As m32
B12: CD70-39 (scFv)
scFv: EVQLLESGGGVVQPGRSLRLSCAASGFTFSSYAMSWVRQAPGKGLEWVSAISGSGGGTFYADSVEGRFTISRDNSKNTLYLQMNSLRAEDTAVYYCARHDYSNYPYFDYWGLGTLVTVSSGGGGSGGGGSGGGGSEIVLTQSPGTLSLSPGERATLSCRASQSVRSSYLAWYQQKPGQAPRLLIYGASSRATGIPDRFSGSGSGTDFTLTISRLEPEDFAVYSCQQYGDLPFTFGPGTKVEIK
notes: As m32
B13: CD70-54 (scFv)
scFv: B3 scFv with V31I, T50A, S52G, R85S, R98K, A105P, L169V, K239R, V240L
notes: As m32
B14: CD70-32 (scFv)
scFv: B1 scFv with L11M, T31S, L50A, Y59F, K65E, A97T, L180P, L240V
notes: As m32
B15: CD70-28 (scFv)
scFv: B1 scFv with G163S, D167N, L180P, S189N, H223S, S229I, T230S, L240V
notes: As m32
B16: CD70-27 (scFv)
scFv: B4 scFv with S31T, Q43K, R57G, Y59F, V164I, G166S, S167N, S186G, D229S
notes: As m32
B17: CD70-74 (scFv)
scFv: B4 scFv with Q43K, R57S, Y59F, K65Q, M83V, K98R, S167N, S186G, D229Y, E241D
notes: As m32
B18: CD70-38 (scFv)
scFv: B10 scFv with V164I, N212S, T233S, G236Q, D241E
notes: As m32

Assays:
human CD70 = molecular target: T1, human CD70; test: FACS on CHO cells, periplasmic scFv
Description: (§1) All antibodies were diluted in PBS/1.5% FCS. As negative control, cells were incubated with PBS/2% FCS instead of the periplasmic extract. The samples were measured by flow cytometry.

[1] = molecular target: T2, full-length mouse CD70 with C-terminal …; test: FACS on CHO cells, periplasmic scFv
Description: as §1

Row | binding result (human CD70) | binding result [1] | Binder
1 | binds | no binding | B1
2 | binds | no binding | B2
3 | binds | no binding | B3
4 | binds | no binding | B4
5 | binds | no binding | B5
6 | binds | no binding | B6
7 | binds | no binding | B7
8 | binds | no binding | B8
9 | binds | no binding | B9
10 | binds | no binding | B10
11 | binds | no binding | B11
12 | binds | no binding | B12
13 | binds | no binding | B13
14 | binds | no binding | B14
15 | binds | no binding | B15
16 | binds | no binding | B16
17 | binds | no binding | B17
18 | binds | no binding | B18

Reference: patent US20170129961A1 (Amgen, published 2017)
